These results are taken from patent publication US20250121081A1 (JIANGSU HENGRUI PHARMACEUTICALS, published 2025).

Experiment [1] addresses T1, human ROR1 on cells (ROR1-CHO-K1, Jeko-1, MDA-MB-231, HCC827/ROR1) (human, UniProt Q01973 30-937). In words: cell-based or functional assay.
Experiment [2] deals with T2, rat ROR1-His (Cat. #RO1-R5221, Acro) antigen (rat, UniProt D3ZZ97 30-406).
T2 construct: Bought His-tagged antigen; not shown: His tag
Kind of experiment: SPR (Biacore T200), IgG captured on Protein A chip, rat ROR1-His as analyte, 1:1 model. How it is done: (§1) The anti-ROR1 antibody was analyzed by Biacore T200 (Cytiva) for affinity characterization and binding kinetics. The IgG antibody was subjected to affinity capture by a Protein A biosensor chip (Cat. #29127556, Cytiva), and then a mouse ROR1-His (Cat. #RO1-M522, Acro) antigen and a rat ROR1-His (Cat. #RO1-R5221, Acro) antigen that were diluted with the HBS-EP buffer (pH 7.4, Cat. #BR-1006-69, Cytiva) to a series of concentrations were allowed to flow over the surface of the chip. The antigen-antibody binding kinetics was tracked for 3 min and the dissociation kinetics was tracked for 15 min. Reaction signals were detected in real time using a Biacore T200 instrument to obtain binding and dissociation curves. After dissociation was complete in each cycle, the biosensor chip was washed with 10 mM Gly-HCl at pH 1.5 (Cat. #BR-1003-54, Cytiva) for regeneration. The data obtained were analyzed with BIAevaluation software of Cytiva using a 1:1 (Langmuir) binding model.
(In general: SPR reads the build-up and loss of mass on a sensor chip optically.)

The target in experiment [3] is T1, human ROR1 on cells (ROR1-CHO-K1, …). Kind of experiment: flow cytometry on MDA-MB-231 cells. How it is done:
(§2) ROR1-CHO-K1 cells (Example 1), Jeko-1 cells (ATCC, CRL-3006), or MDA-MB-231 cells (ATCC, CRM-HTB-26) were separately suspended in a FACS buffer (2% fetal bovine serum (Gibco, 10099141) and PBS at pH 7.4 (Sigma, P4417-100TAB) to prepare a cell suspension at 1× 10⁶ cells/mL, and the suspension was then added to a 96-well round-bottom plate at 100 μL/well. After centrifugation and removal of the supernatant, the test antibody that was diluted with the FACS buffer to different concentrations was added at 50 μL/well. The plate was incubated in the dark in a 4° C. refrigerator for 1 h. The plate was washed 3 times with the FACS buffer by centrifugation at 500 g, and a fluorescent secondary antibody at a working concentration was added. The plate was incubated in the dark in the 4° C. refrigerator for 40 min. The plate was washed 3 times with the FACS buffer by centrifugation at 500 g and tested on a BD FACSCantoII flow cytometer for geometric mean fluorescence intensity, and the EC₅₀ values for the binding of the antibody to the cells expressing ROR1 were calculated.
Background: Flow cytometry measures light scatter and fluorescence of single cells or particles in a stream.

The target is the same in experiment [4]. Kind of experiment: cell-based or functional assay. The source holds these as a separate data set.
Experiment [5] has the same target. In words: flow cytometry on ROR1-CHO-K1 cells. How it is done:
as §2

Experiment [6] has as its target T3, mouse ROR1-His (Cat. #RO1-M522, Acro) antigen (mouse, UniProt Q9Z139 30-403).
T3 construct: Bought His-tagged antigen; not shown: His tag
In words: SPR (Biacore T200), IgG captured on Protein A chip, mouse ROR1-His as analyte, 1:1 model. How it is done:
as §1

In experiment [7] the target is T4, human ROR1 (Cat. #19771-H08H, Sino Biological) antigen (human, UniProt Q01973 30-403).
T4 construct: Bought soluble antigen used as SPR analyte
T4 sequence (Q01973 30-403 limits assumed): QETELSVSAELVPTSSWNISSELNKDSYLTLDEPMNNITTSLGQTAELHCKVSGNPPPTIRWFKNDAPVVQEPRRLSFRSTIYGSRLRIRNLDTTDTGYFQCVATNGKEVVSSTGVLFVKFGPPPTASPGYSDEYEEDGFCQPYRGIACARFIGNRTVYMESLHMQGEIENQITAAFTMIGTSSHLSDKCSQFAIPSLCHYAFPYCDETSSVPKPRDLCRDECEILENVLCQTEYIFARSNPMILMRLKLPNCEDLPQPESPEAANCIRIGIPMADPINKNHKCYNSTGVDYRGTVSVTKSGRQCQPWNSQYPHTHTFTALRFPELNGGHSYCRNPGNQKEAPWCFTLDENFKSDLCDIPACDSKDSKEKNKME
In words: SPR (Biacore T200), IgG captured on Protein A chip, human ROR1 as analyte, 1:1 model. How it is done:
as §1, with “a human ROR1” for “a mouse ROR1-His”, “(Cat. #19771-H08H, Sino Biological)” for “(Cat. #RO1-M522, Acro) antigen and a rat ROR1-His (Cat. #RO1-R5221, Acro)”, “that was” for “that were”, “concentrations was” for “concentrations were”, “for 10” for “for 15”

The target of experiment [8] is T1, human ROR1 on cells (ROR1-CHO-K1, …). In words: flow cytometry on Jeko-1 cells. How it is done: as §2
Experiment [9] concerns the target T3, mouse ROR1-His (Cat. #RO1-M522, Acro) …. Kind of experiment: SPR (Biacore T200), IgG captured on Protein A chip, antigen as analyte. How it is done: as §1
Experiment [10] deals with T2, rat ROR1-His (Cat. #RO1-R5221, Acro) …. The description is as above. How it is done: as §1

T3 sequence (Q9Z139 30-403 limits assumed): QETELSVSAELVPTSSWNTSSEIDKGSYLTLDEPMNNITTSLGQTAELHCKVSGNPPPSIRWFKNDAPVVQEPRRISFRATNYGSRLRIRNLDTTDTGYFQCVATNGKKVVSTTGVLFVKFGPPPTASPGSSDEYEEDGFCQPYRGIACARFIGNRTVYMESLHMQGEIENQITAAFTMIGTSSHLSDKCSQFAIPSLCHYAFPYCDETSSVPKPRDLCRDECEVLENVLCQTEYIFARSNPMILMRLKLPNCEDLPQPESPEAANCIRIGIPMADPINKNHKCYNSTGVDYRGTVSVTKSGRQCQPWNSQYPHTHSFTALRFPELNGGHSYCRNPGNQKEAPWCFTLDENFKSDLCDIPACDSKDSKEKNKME
T1 sequence (Q01973 30-937 limits assumed): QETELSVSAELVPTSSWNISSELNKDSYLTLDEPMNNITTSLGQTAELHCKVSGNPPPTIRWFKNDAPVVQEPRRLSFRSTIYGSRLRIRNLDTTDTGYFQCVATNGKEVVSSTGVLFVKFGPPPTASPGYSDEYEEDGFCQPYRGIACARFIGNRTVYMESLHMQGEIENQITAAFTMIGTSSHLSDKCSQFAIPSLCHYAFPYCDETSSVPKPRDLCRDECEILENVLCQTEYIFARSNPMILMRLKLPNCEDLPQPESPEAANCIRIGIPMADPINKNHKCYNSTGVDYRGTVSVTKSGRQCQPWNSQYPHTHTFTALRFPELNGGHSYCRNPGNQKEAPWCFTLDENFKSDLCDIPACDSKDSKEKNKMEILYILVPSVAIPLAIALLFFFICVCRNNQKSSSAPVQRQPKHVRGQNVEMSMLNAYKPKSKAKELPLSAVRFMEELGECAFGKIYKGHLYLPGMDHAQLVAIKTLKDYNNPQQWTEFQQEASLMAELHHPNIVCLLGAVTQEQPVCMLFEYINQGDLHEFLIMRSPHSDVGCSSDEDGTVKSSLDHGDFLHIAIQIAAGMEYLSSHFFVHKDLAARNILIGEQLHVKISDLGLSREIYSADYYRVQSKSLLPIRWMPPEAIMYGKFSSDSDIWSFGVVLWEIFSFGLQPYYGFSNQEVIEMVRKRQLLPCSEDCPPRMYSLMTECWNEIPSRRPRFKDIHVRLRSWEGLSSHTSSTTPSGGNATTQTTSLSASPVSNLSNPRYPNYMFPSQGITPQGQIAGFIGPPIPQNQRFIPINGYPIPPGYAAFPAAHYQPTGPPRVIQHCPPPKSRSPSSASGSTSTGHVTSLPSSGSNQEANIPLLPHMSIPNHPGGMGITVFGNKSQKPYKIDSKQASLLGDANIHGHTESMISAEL

B1: ADC-5 (antibody 347 conjugated to compound 9A, n=3.99) (antibody, human IgG1, kappa, V domains shown)
VH: QVQLVQSGAEVKKPGSSVKVSCKASGYTFTDYYISWVRQGPGQGLEWMGGINAGNGNTNYAQKFQGRVTITADESTSTAYMELSSLRSEDTAVYYCASPGWDVFDIWGQGTMVTVSS
VL: DIQMTQSPSPLSASVGDRVTITCQASQDISNYLNWYQQKPGKAPKLLIYDASNLETGVPSRFSGSGSGTDFTFTISSLQPEDIATYYCQQHEDLPITFGQGTRLEIKR
modifications: linker-drug compound 9A conjugated after TCEP reduction; average drug loading n=3.99 per antibody; sites not stated
Regarding B1, in [1], the “IC50 (nM), killing of HCC827/ROR1 (+++) cells” value is 4.36 nM; the “IC50 (nM), killing of Jeko-1 (+) cells” value is 58.1 nM; the “IC50 (nM), killing of MDA-MB-231 (+) cells” value came to 349 nM.

B2: fully human ROR1 antibody 347 (antibody, human IgG1, kappa, V domains shown)
VH: QVQLVQSGAEVKKPGSSVKVSCKASGYTFTDYYISWVRQGPGQGLEWMGGINAGNGNTNYAQKFQGRVTITADESTSTAYMELSSLRSEDTAVYYCASPGWDVFDIWGQGTMVTVSS
VL: DIQMTQSPSPLSASVGDRVTITCQASQDISNYLNWYQQKPGKAPKLLIYDASNLETGVPSRFSGSGSGTDFTFTISSLQPEDIATYYCQQHEDLPITFGQGTRLEIKR
notes: Full-length human IgG1/kappa
In the case of B2, the Kd (usually the equilibrium constant for the complex coming apart) in [2] is 0.0315 nM; in [6], 0.238 nM; in experiment [7], 1.18 nM. The koff (commonly the first-order rate constant of dissociation) stood at 0.00115 s⁻¹ in experiment [2], 0.000676 s⁻¹ in experiment [6] and 0.00273 s⁻¹ in [7]. Besides, the results for the kon in experiment [2], in experiment [6] and in experiment [7] were 3.66e+07 M⁻¹ s⁻¹, 2.84e+06 M⁻¹ s⁻¹ and 2.31e+06 M⁻¹ s⁻¹, respectively. The EC50 (as a rule, the concentration that produces a half-maximal response) in experiment [3] turned out to be 0.094 nM; in experiment [5] it was 0.502 nM; in [8], 0.098 nM. Also, the “IC50 (nM) (DT3C endocytosis killing on ROR1-CHOK1)” value in experiment [4] amounted to 0.596 nM.

B3: ADC-4 (antibody 347 conjugated to compound 9A, n=7.39) (antibody, human IgG1, kappa, V domains shown)
VH: QVQLVQSGAEVKKPGSSVKVSCKASGYTFTDYYISWVRQGPGQGLEWMGGINAGNGNTNYAQKFQGRVTITADESTSTAYMELSSLRSEDTAVYYCASPGWDVFDIWGQGTMVTVSS
VL: DIQMTQSPSPLSASVGDRVTITCQASQDISNYLNWYQQKPGKAPKLLIYDASNLETGVPSRFSGSGSGTDFTFTISSLQPEDIATYYCQQHEDLPITFGQGTRLEIKR
modifications: linker-drug compound 9A conjugated after TCEP reduction; average drug loading n=7.39 per antibody; sites not stated
Consider B3, for which, in [1], the “IC50 (nM), killing of HCC827/ROR1 (+++) cells” value came to 1.36 nM; the “IC50 (nM), killing of Jeko-1 (+) cells” value came to 17.4 nM; the “IC50 (nM), killing of MDA-MB-231 (+) cells” value turned out to be 146 nM.

B4: anti-ROR1 antibody Ab1 in WO2018237335 (positive control) (antibody, human IgG1, kappa, V domains shown)
VH: QVQLQESGPGLVKPSQTLSLTCTVSGYAFTAYNIHWVRQAPGQGLEWMGSFDPYDGGSSYNQKFKDRLTISKDTSKNQVVLTMTNMDPVDTATYYCARGWYYFDYWGHGTLVTVSS
VL: DIVMTQTPLSLPVTPGEPASISCRASKSISKYLAWYQQKPGQAPRLLIYSGSTLQSGIPPRFSGSGYGTDFTLTINNIESEDAAYYFCQQHDESPYTFGEGTKVEIKR
notes: Positive control antibody; also called Abl
Take B4: the binding result in experiment [9] is on record as “no binding”. Further, the binding result in experiment [10] is “no binding”. In experiment [7], the affinity, expressed as Kd, was 91 nM; the koff turned out to be 0.0546 s⁻¹; the kon (as a rule, the second-order rate constant of association) is 600000 M⁻¹ s⁻¹.
